Our source for the Tm values is the array DNA melting data of Ke et al..

This data set in a line: melting temperature; melt of duplexes. The settings on record: sodium 0.0675 M; strand 1 µM.
Broadly, the Tm is the temperature at which the thermal transition is half complete. For “CGACGTGCCTGATGTGCTG+CAGCACATTGCGCACGTCG ((((((((...((((((((+))))))))...))))))))”, the Tm came out at 49.3 °C.

Consider “CGACGTGCCCAATGTGCTG+CAGCACATATCGCACGTCG ((((((((...((((((((+))))))))...))))))))”, for which the Tm came out at 47.1 °C.

For “CGACGTGCAGCATGTGCTG+CAGCACATATCGCACGTCG ((((((((...((((((((+))))))))...))))))))”, the Tm was found to be 46.6 °C.

For the substance “CGACGTGCTTCATGTGCTG+CAGCACATAGCGCACGTCG ((((((((...((((((((+))))))))...))))))))”, the Tm is 47.4 °C.

As for “CGACGTGCCGGATGTGCTG+CAGCACATGTGGCACGTCG (((((((((..((((((((+))))))))..)))))))))”, the midpoint of thermal melting (Tm) was 57.3 °C.

With “CGACGTGCTCTATGTGCTG+CAGCACATCCGGCACGTCG ((((((((...((((((((+))))))))...))))))))”, the Tm came out at 48.4 °C.

Take “CGACGTGCCGGATGTGCTG+CAGCACATCGCGCACGTCG ((((((((..(((((((((+)))))))))..))))))))”: the Tm came out at 55.4 °C.

For “CGACGTGCTACATGTGCTG+CAGCACATGTCGCACGTCG ((((((((.((((((((((+)))))))))).))))))))”, the melting temperature (Tm) turned out to be 57.2 °C.

For the substance “CGACGTGCCGAATGTGCTG+CAGCACATGCTGCACGTCG ((((((((.(.((((((((+)))))))).).))))))))”, the Tm came out at 50.8 °C.

As for “CGACGTGCGTGATGTGCTG+CAGCACATCTTGCACGTCG ((((((((..(((((((((+)))))))))..))))))))”, the Tm worked out at 55.6 °C.

As for “CGACGTGCATTATGTGCTG+CAGCACATTCAGCACGTCG ((((((((...((((((((+))))))))...))))))))”, the Tm was determined as 48.7 °C.

In the case of “CGACGTGCGTCATGTGCTG+CAGCACATTTTGCACGTCG ((((((((...((((((((+))))))))...))))))))”, the Tm came to 48.4 °C.

Turning to “CGACGTGCAGCATGTGCTG+CAGCACATGCGGCACGTCG ((((((((.((((((((((+)))))))))).))))))))”, the Tm was found to be 61.6 °C.

Take “CGACGTGCACTATGTGCTG+CAGCACATGACGCACGTCG ((((((((...((((((((+))))))))...))))))))”: the Tm is 44.6 °C.

“CGACGTGCACGATGTGCTG+CAGCACATATGGCACGTCG ((((((((...((((((((+))))))))...))))))))”: the Tm amounted to 46.9 °C.

Regarding “CGACGTGCATTATGTGCTG+CAGCACATCAGGCACGTCG ((((((((.(.((((((((+)))))))).).))))))))”, the Tm is 49.9 °C.

In the case of “CGACGTGCAAAATGTGCTG+CAGCACATGGCGCACGTCG ((((((((...((((((((+))))))))...))))))))”, the melting temperature (Tm) came to 54 °C.

For the substance “CGACGTGCATAATGTGCTG+CAGCACATGTGGCACGTCG ((((((((...((((((((+))))))))...))))))))”, the Tm turned out to be 51 °C.

On to “CGACGTGCTATATGTGCTG+CAGCACATTGCGCACGTCG ((((((((...((((((((+))))))))...))))))))”, for which the Tm is 47.4 °C.

For the substance “CGACGTGCAGTATGTGCTG+CAGCACATTATGCACGTCG (((((((((..((((((((+))))))))..)))))))))”, the Tm amounted to 52.4 °C.

As to “CGACGTGCTAGATGTGCTG+CAGCACATACTGCACGTCG ((((((((...((((((((+))))))))...))))))))”, the Tm came to 50.9 °C.

In the case of “CGACGTGCTGTATGTGCTG+CAGCACATCCAGCACGTCG ((((((((((.((((((((+)))))))).))))))))))”, the Tm was 55.5 °C.

As to “CGACGTGCACGATGTGCTG+CAGCACATTGGGCACGTCG ((((((((.(.((((((((+)))))))).).))))))))”, the Tm turned out to be 56.4 °C.

Take “CGACGTGCCAAATGTGCTG+CAGCACATCGGGCACGTCG (((((((((..((((((((+))))))))..)))))))))”: the Tm turned out to be 54.3 °C.

Consider “CGACGTGCCAGATGTGCTG+CAGCACATCAAGCACGTCG ((((((((..(((((((((+)))))))))..))))))))”, for which the Tm is 53.7 °C.

For the substance “CGACGTGCCGGATGTGCTG+CAGCACATTCGGCACGTCG ((((((((((.((((((((+)))))))).))))))))))”, the Tm turned out to be 62.4 °C.

For the substance “CGACGTGCTTGATGTGCTG+CAGCACATCCAGCACGTCG (((((((((.(((((((((+))))))))).)))))))))”, the Tm is 57.1 °C.

Turning to “CGACGTGCACCATGTGCTG+CAGCACATAAGGCACGTCG ((((((((...((((((((+))))))))...))))))))”, the Tm was determined as 44.1 °C.

In the case of “CGACGTGCGAGATGTGCTG+CAGCACATCGAGCACGTCG ((((((((..(((((((((+)))))))))..))))))))”, the Tm came out at 64.5 °C.

In the case of “CGACGTGCGCCATGTGCTG+CAGCACATTATGCACGTCG ((((((((...((((((((+))))))))...))))))))”, the melting temperature (Tm) worked out at 47.6 °C.

For the substance “CGACGTGCGCCATGTGCTG+CAGCACATGGCGCACGTCG (((((((((((((((((((+)))))))))))))))))))”, the midpoint of thermal melting (Tm) was determined as 68.7 °C.

On to “CGACGTGCCACATGTGCTG+CAGCACATCAAGCACGTCG ((((((((...((((((((+))))))))...))))))))”, for which the Tm turned out to be 47.7 °C.

Regarding “CGACGTGCAGTATGTGCTG+CAGCACATTTGGCACGTCG ((((((((...((((((((+))))))))...))))))))”, the Tm was found to be 49.2 °C.

For the substance “CGACGTGCACAATGTGCTG+CAGCACATACGGCACGTCG ((((((((...((((((((+))))))))...))))))))”, the melting temperature (Tm) is 44.7 °C.

“CGACGTGCACCATGTGCTG+CAGCACATGCCGCACGTCG ((((((((..(((((((((+)))))))))..))))))))”: the Tm came out at 48.6 °C.

Take “CGACGTGCTTTATGTGCTG+CAGCACATTGGGCACGTCG ((((((((...((((((((+))))))))...))))))))”: the Tm is 49.8 °C.

For “CGACGTGCCCGATGTGCTG+CAGCACATTACGCACGTCG ((((((((...((((((((+))))))))...))))))))”, the melting temperature (Tm) amounted to 48 °C.

Take “CGACGTGCAGGATGTGCTG+CAGCACATCTAGCACGTCG ((((((((..(((((((((+)))))))))..))))))))”: the Tm was 56 °C.

For “CGACGTGCAGTATGTGCTG+CAGCACATTCGGCACGTCG ((((((((.(.((((((((+)))))))).).))))))))”, the Tm was 53.1 °C.

Consider “CGACGTGCTGTATGTGCTG+CAGCACATCCTGCACGTCG ((((((((.(.((((((((+)))))))).).))))))))”, for which the Tm was 51.5 °C.

In the case of “CGACGTGCATAATGTGCTG+CAGCACATGTTGCACGTCG (((((((((..((((((((+))))))))..)))))))))”, the Tm worked out at 53.7 °C.

As to “CGACGTGCAACATGTGCTG+CAGCACATAGTGCACGTCG (((((((((..((((((((+))))))))..)))))))))”, the Tm turned out to be 48.9 °C.

Turning to “CGACGTGCTCTATGTGCTG+CAGCACATGTCGCACGTCG ((((((((...((((((((+))))))))...))))))))”, the Tm came to 48.1 °C.

With “CGACGTGCCAAATGTGCTG+CAGCACATATGGCACGTCG ((((((((((.((((((((+)))))))).))))))))))”, the melting temperature (Tm) turned out to be 56.9 °C.

Turning to “CGACGTGCTTTATGTGCTG+CAGCACATCGGGCACGTCG ((((((((...((((((((+))))))))...))))))))”, the Tm is 48.3 °C.

Take “CGACGTGCTGCATGTGCTG+CAGCACATCTAGCACGTCG (((((((((..((((((((+))))))))..)))))))))”: the midpoint of thermal melting (Tm) worked out at 52.4 °C.

Consider “CGACGTGCTGCATGTGCTG+CAGCACATTCAGCACGTCG ((((((((((.((((((((+)))))))).))))))))))”, for which the Tm was found to be 57 °C.

As to “CGACGTGCGATATGTGCTG+CAGCACATCAAGCACGTCG ((((((((...((((((((+))))))))...))))))))”, the Tm amounted to 52.1 °C.

Take “CGACGTGCGCAATGTGCTG+CAGCACATTAGGCACGTCG ((((((((..(((((((((+)))))))))..))))))))”: the Tm came out at 52.7 °C.

On to “CGACGTGCCGGATGTGCTG+CAGCACATTAAGCACGTCG ((((((((...((((((((+))))))))...))))))))”, for which the melting temperature (Tm) is 50.4 °C.

In the case of “CGACGTGCTGTATGTGCTG+CAGCACATCCCGCACGTCG ((((((((.(.((((((((+)))))))).).))))))))”, the Tm was 49.4 °C.

Turning to “CGACGTGCGAGATGTGCTG+CAGCACATCTCGCACGTCG (((((((((((((((((((+)))))))))))))))))))”, the Tm turned out to be 66.5 °C.

Take “CGACGTGCTCGATGTGCTG+CAGCACATGATGCACGTCG ((((((((...((((((((+))))))))...))))))))”: the melting temperature (Tm) is 51.9 °C.

“CGACGTGCAGCATGTGCTG+CAGCACATCCCGCACGTCG ((((((((.(.((((((((+)))))))).).))))))))”: the Tm is 46.3 °C.

Turning to “CGACGTGCCGCATGTGCTG+CAGCACATCGAGCACGTCG ((((((((...((((((((+))))))))...))))))))”, the Tm worked out at 54.5 °C.

As to “CGACGTGCGTGATGTGCTG+CAGCACATCAAGCACGTCG ((((((((.((((((((((+)))))))))).))))))))”, the Tm turned out to be 58.6 °C.

Regarding “CGACGTGCCTTATGTGCTG+CAGCACATGCAGCACGTCG ((((((((...((((((((+))))))))...))))))))”, the midpoint of thermal melting (Tm) turned out to be 49 °C.

With “CGACGTGCGCAATGTGCTG+CAGCACATAATGCACGTCG ((((((((...((((((((+))))))))...))))))))”, the midpoint of thermal melting (Tm) amounted to 50.5 °C.

For the substance “CGACGTGCGCGATGTGCTG+CAGCACATTGAGCACGTCG ((((((((.(.((((((((+)))))))).).))))))))”, the Tm is 56.8 °C.

Turning to “CGACGTGCCACATGTGCTG+CAGCACATGACGCACGTCG ((((((((..(((((((((+)))))))))..))))))))”, the Tm amounted to 49.5 °C.

For the substance “CGACGTGCGACATGTGCTG+CAGCACATTCGGCACGTCG ((((((((...((((((((+))))))))...))))))))”, the Tm was 51.9 °C.

For “CGACGTGCGCTATGTGCTG+CAGCACATGGGGCACGTCG ((((((((.(.((((((((+)))))))).).))))))))”, the Tm came to 56.7 °C.

“CGACGTGCGCAATGTGCTG+CAGCACATGTCGCACGTCG (((((((((..((((((((+))))))))..)))))))))”: the Tm was 56.1 °C.

Take “CGACGTGCGCAATGTGCTG+CAGCACATCAAGCACGTCG ((((((((...((((((((+))))))))...))))))))”: the Tm amounted to 53.1 °C.

As for “CGACGTGCAAGATGTGCTG+CAGCACATGCAGCACGTCG ((((((((...((((((((+))))))))...))))))))”, the Tm came out at 52.3 °C.

For the substance “CGACGTGCATCATGTGCTG+CAGCACATCGGGCACGTCG ((((((((...((((((((+))))))))...))))))))”, the Tm is 47.9 °C.
